{"source": "the DeepSol protein solubility set", "data": [{"assay": "soluble on expression in E. coli; label from the status in PepcDB or PDB records", "values": [{"sequence": "FTLRLNSTEMPMSDLIEVELLTGKQLLLVEPNMQAASVTQQILSQEGILVTYRSSLPENEEHYDYVLLNLAANQTYDEQSVAAWIEQAKRMAPSVIMGTPSTELALADQIMTEHQIQCLTKPLSRRKLLQS", "soluble on expression in E. coli": "not soluble"}, {"sequence": "MGSDKIHHHHHHMVKIKGLNGNLVFIFGPGSFDEYLSFLEEKLTANKQLFSGSRVIFKGEELKKLSHSQIASLQELCLRHGVIMNNNAVTVNKGSSKDLVIYRNLRSGQKLRSEGSVIIWGDVHESAEILAAGDIIVLGKLDGIAHAGCYGDMNRLIFALSLSPGQIRIGDRLSRSPEDPDKSPHPEIAFWDGENICIKAYSSRSGLRG", "soluble on expression in E. coli": "not soluble"}, {"sequence": "MTVPLTTRDRIALIPIAEIHILNPRTRNKKIHHELIENIKTVGLKRPITVSRRVSTQGSFNYDLVCGQGRLEAFLALEATEIPAFVIDSAEEDCLVMSLVENVARRQHRPIDLMNEVGRLKGRGKTDAEIATIIGSTSSWVNMIVNLIERGEEKLLSAVETGLIPLSMATDIARSSESDIQDLLTDAYERGIRGKKITKLRHLLELRAKKDKLVRGNPLGVSQNKKKRLTPTDLRHLFEREAERQRLMVKKAAFTHDRVVFSIQAIKELLAVSDFEKLLSTEHLDSMPKLIQARLSNRGGL", "soluble on expression in E. coli": "not soluble"}, {"sequence": "MQPLVSVLICAYNVEKYFAQSLAAVVNQTWRNLDILIVDDGSTDGTPAIARRFQEQDGRIRIISNPRNLGFIASLNIGLDELAKSGGGGEYIARTDADDIASPGWIEKIVGEMEKDRSIIAMGAWLEVLSEENNKSVLAAIARNGAIWDKPTRHEDIVAVFPFGNPIHNNTMIMRRSVIDGGLRFDPAYIHAEDYKFWYEAGKLGRLAYYPEALVKYRFHQDQTSSKYNLQQRRTAWKIKEEIRAGYWKAAGIAVGADCLNYGLLKSTAYALYEKALSGQDIGCLRLFLYEYFLSLEKYSLTDLLDFLTDRVMRKLFAAPQYRKILKKMLRPWKYRSYLEHHHHHH", "soluble on expression in E. coli": "not soluble"}, {"sequence": "MKIGIIGVGKMASAIIKGLKQTPHELIISGSSLERSKEIAEQLALPYAMSHQDLIDQVDLVILGIKPQLFETVLKPLHFKQPIISMAAGISLQRLATFVGQDLPLLRIMPNMNAQILQSSTALTGNALVSQELQARVRDLTDSFGSTFDISEKDFDTFTALAGSSPAYIYLFIEALAKAGVKNGIPKAKALEIVTQTVLASASNLKTSSQSPHDFIDAICSPGGTTIAGLMELERLGLTATVSSAIDKTIDKAKSL", "soluble on expression in E. coli": "soluble"}, {"sequence": "MSLSQQQKQVQKLAMTQQLQQSIQILQFNTEELAAFVEAKALENPLIDLQVDTQYTTDFPITSRSYTNQDEENNYMNQIPDYHLSLFESLIDQIHLNYRDTYLRTLVLFLVEYIDVNGYLTISLEEAAVKTEASAIQMLDALTLLQQLDPAGVGARNLQECLMLQTERDDTAPNLAYILLEEEFDALVSRKWGPLAKKFGIELAEIQLIFDYIQTLSPAPGNIFDATEELYIRPDLTVRIKEDRIVVISNKAGRPTLNFQENYFKRMQETDDKEVQEYIKDKKNEFEWLERAVNQRGDTILRVGQEIVRRQEAFFLEADRPLKPMTLKEIADALSIHESTVSRAVNGKYLETTFGVFELRSFFSTSILSSEEDGEDVSTTMVKKQLQKLIDQEVKSKPLSDQKLVERLKDSGMEISRRTVAKYREALGIPSSSKRKRYEEGHHHHHH", "soluble on expression in E. coli": "soluble"}, {"sequence": "MTDAAIAEKDLGNAAYKQKDFEKAHVHYDKAIELDPSNITFYNNKAAVYFEEKKFAECVQFCEKAVEVGRETRADYKLIAKAMSRAGNAFQKQNDLSLAVQWFHRSLSEFRDPELVKKVKELEKQLKAAERLAYINPELAQEEKNKGNEYFKKGDYPTAMRHYNEAVKRDPENAILYSNRAACLTKLMEFQRALDDCDTCIRLDSKFIKGYIRKAACLVAMREWSKAQRAYEDALQVDPSNEEAREGVRNCLRSNDEDPEKAKERSLADPEVQEILRDPGMRMILEQMSNDPGAVREHLKNPEIFQKLMKLRDAGVIQMR", "soluble on expression in E. coli": "soluble"}, {"sequence": "MGSDKIHHHHHHMLFANSLENQLQQWNEVISKQPNNPNAYIRRGMVQFQLAKIEESIDDFDTAEKLDNRIKPYLWQRGLSYYYADRFAEGAQQFEIDLTVNSQDVEETVWRYLCMARLVGVTEARNNLLTVKNDPRLIMRSVYDLFAGHCTPDNVFNIGQTEGNKGKFYSHLYLGLYYEAENNLPLAQEYIVKAADKYKLDDYMWYLAQVHKKLRGWM", "soluble on expression in E. coli": "not soluble"}, {"sequence": "MSGGSDQVKNMIYINGNRRGHCFITSGITFKEFASNIPSPLHQVLLLKHNFEWTDFHYHTLFEYVEEENIHKLIQAEIDEFDEFCWVDFDDASDLDELEPKEIAELLYLAHKKEPLARTFFPLLKNRFVYFSHDDGWYNKVYYRRIADFVGMLSKVIPYKLGAFGKKRFSFFQKSKIFPAISKELIMGLIPLMEDGLYIDLAGKIESRRGLEIPVYVVGSYESTDEVLDNIDELKEEATETGWLIFDKKEQEWQWVVD", "soluble on expression in E. coli": "not soluble"}, {"sequence": "MNQEVTAPKEMNQGASNDLLTTSLKNVTRLNTNDPSQMAVLTSQTIWAATHKENQPGAVILVPASEWQLGIASADFIHHPNNGPILFIEKEKIPEMTLKEIKRLNPIGTKDGTQIMVMGDVGTSALEQLKGYKVKQIKETDPAIFAKDVDKEYADITGSYPNSVIIGSSAEEGRLYTTPAVNWISHMPEPLLYTEKNKVPEATIEALKMRKDKANIYVLGPEKIVSKEVEKELSKYGKVTRISGETPTENSIAFAKFKDEKTKFGWGFTKPGHGLSFVSSKTPDLAVAGAPFSHMGKHAPVVLLEEGKASQTVYDFLASIQPKFKDDPTLGPYNHGFLLGNTSDISFETQGILDERLEIVQESGQGHGGH", "soluble on expression in E. coli": "not soluble"}, {"sequence": "MQVISPSSPAPRFAGKERFSEVYGELNDDFGSKLKISSKEEENRDDDSWWNQNGTDKDDEGREEDFSFASVNADNSPITADEAFEDGQIRPVYPLFNRNIFFDDPEEKTLRSPLKKLFVESTTTEEEEEESDTVGPYCSWTNRTVEQASPETCRKSNSTGFSKLWRFRDLVLRSNSDGKDAFVFLSNGSSSTSSTSSTAARLSGVVKSSEKGKEKTKTDKKKDKMRTKSAHEKLYMRNRAMREEGKRRSYLPYKHVGFFTNVNGLTRNVHPY", "soluble on expression in E. coli": "soluble"}, {"sequence": "MSLIIPEKFQHIHRVMNTNIDGNRKVPYALTAIKGVGRRFAFVCCRKADVDVNKRAGELTEEDFDKIVTIMQNPSQYKIPNWFLNRQKDIKDGKTGQLLSTAVDNKLREDLERMKKIRLHRGLRHYWGLRVRGQHTKTTGRKGRTVGVSKKKGG", "soluble on expression in E. coli": "not soluble"}, {"sequence": "MGSDKIHHHHHHMKSHIGLIGLAVMGQNLALNIARKGYKVSVYNRTAQRTEEFVKNRVTNEEIEPHYDIESFVKSLERPRKIILMVKAGKPVDDTISQLLPHLEPGDLIIDGGNSHYMDTERRFKELSEKGILFLGMGVSGGEYGALHGPSLMPGGSREAYNLVEEILLEIAAKTEDGPCCTYVGERSAGHFVKMVHNGIEYAIMQAIAEVYHIMRDVLSLSSEEMSSIFEEWNRGELSSFLVEITYKILRKKDEETGKPMVDVILDKAEQKGTGKWTSQAALDLGIPTPSINLAVVERVISHFKDIRTRLSKLYNKRRSATQGSEEFLRDLRNSLFFAMFMAFSQGMWLIAEASKEFGYGVSLSEVLRIWKGGCIIRAKLIDTLRRYISNENAYLLENEEVMNLLKGKIDSLKNILKASIENEIPVPVLSSSYNYFMSLTEERLPANLIQAQRDFFGAHTFERVDREGVFHINWEEGEIG", "soluble on expression in E. coli": "not soluble"}, {"sequence": "MAHHHHHHMSHIYDMLGINVEKLKTKKKQKEKISKKQLNFLKDNDNLFSLPTTSKIISLNNKNVSVWRLVKFRSKCRNDDLILTKWSKIGYKNDKKEFNEDKIEDDNTFEKFNKKINIIKYNDDLYYREIQPLNTGWTKEETDYLFNLCEKYDCHFIIVNDVYDIKYKRTIEEIKERFYTVTKKVMEDKFDQQIKLEEAKKIKNNNDILKLKEAKAKHPLIKFTYNMQADLERKNIIHKTYTVSKKDVMLEETTLENIKKFESKIKLELKKAADMKKLKKKFELTTEEIVPITKLPEEDKEAKNIYSARYYFQKLKIDISYFDKLDIYLKENNIEKPTIYTENICFLYGVLRTDVAILLNLRKKIEKLKQEREFWKGQMNNLEEEYLKKQQKT", "soluble on expression in E. coli": "not soluble"}, {"sequence": "MTRLTVFKPRSLVSILMFTTVWAVGSASASTLDLEAQRAQYDKAQRWLDEKNVAQYQRIRKQIDSYPLTPYLDYRAFLIDLGSKPPIAVRNFIDSHKEYPFSARIAAPYLDALARSKKWSALLQFQTQLPNGETYQCHYYNAKLQTGKRNEAFEGAKKLWLNGASIADACDPLFAEWDRVGGLSDDWVLKRALLAFEGRNRNLIVYLQKKLDGKKSQAKAQGMLELFDKPERVLAYSRKASQDPINQKLAELALQKWARSEPQEAQAVFNDVAKAQGWNQEQKGRVARFIAIRLMDTEEAAIAKWRDEVTRTSQDVRLIEARIRLALRENDWRGLSQWIAVLPEQERKTLRWQYWQGRSEIALGKKKEGTERLKALLGQRSFYSVAAAKILQQSVNYPTSTVTLDMKQIKAHKKALARIDELIALDKVPAAKSEWRWLLDRVSQKEKEMLAAYAADSGWYQMTIAATISASLWDNNQLRFPVVHQNLFTLHGRKNGVDPITLMSLARQESALNPDAQSPVGARGLMQIMPDTARYTARKYQLSYSNPDELYQVGKNIEIGSRYLSSLLERYDQNRILAFAAYNAGPSRVDSWLKRSQGKLDAYGFIEAIPFAETRGYVQNILMFETYYRDLMGVQGRFLNEHELNTKY", "soluble on expression in E. coli": "soluble"}, {"sequence": "MGSDKIHHHHHHARPLSDVLNDVAARFQVRLKYDVDTVGRVLPYADFRIRPYSLEETLTNVLSPFDYKFVKQSDKVYKLKPYEYARRTDADGEKMLAYLSGLYSDKSQWEQRREILRKEVRQRLGLDDMLGKTVKDAKPVLSKIRKFDGYTVQNFALETLPGLYVCGSVYAPRTKGKHALIICPNGHFGQGRYRKDQQQRMATLARMGAVCVDYDLYGWGESALQVGGKAHHTADAHTIQAMNGIWILDYMLANRKDIDPACIGVNGGSGGGTQTVLLTVLDDRFTAAAPVVSLASHFDGGCPCESGKPIQLAGGGTCNAELAALFAPRPMLVVSDGGDWTATVPRLEYPYLQRIYGFYGATDKVSNVHLPQERHDFGPNKRNAVYDFFIDVFGLDRNMLDESKVTIEPEDALKSFGEKGEKLPAGALRYKE", "soluble on expression in E. coli": "not soluble"}, {"sequence": "MGSDKIHHHHHHMPEFNYQKAFPLKKDPTPYKLISTDYVSTIEVDGRKILKIDPKALELVAEKALADVSFYLRSSHLEKLAKIIKDPEATDNDRFVAYTLLQNASTAGEGKLPSCQDTGTAIVMGKKGENVWTGANDEEALSKGIYNTYQEKNLRYSQVVPITMFEEKNSGTNLPAQIDIYAEQGNEYKFLFMAKGGGSANKTYLYQQTKALLNENSLAEFVKNKIKDLGTSACPPYHLALVIGGTSAEANLKAVKLASAGYYDELPTEGNMGGQAFRDLEWEEKVQLICQESLIGAQFGGKYFTHDVKVIRLPRHAASCPVGIGVSCSADRNIKAKITEEGIFIEALETNPEKFLPAQAPHLEKAVEVDLNQPMADVLKLLSQYPIKTRLKLKGTLIVARDIAHAKIKELLDAGKPMPEYFKNHPVYYAGPAKTPEGMPSGSFGPTTAGRMDSYVNLFQSQGGSMIMLAKGNRSKAVTDACKEFGGFYLGSIGGPAAILAKENIKSVEVVDFEELGMEAVRKIEVVDFPAFIICDDKGNDFFANL", "soluble on expression in E. coli": "not soluble"}, {"sequence": "MSLWHGVIVATSLPFDDDLSVDFGAYGESVAHLAAQGMHGVAPNGSLGEYQTLTYEERDRVVETAVANAPEGFTVMPGVGAYGGREAERHARFAKDAGCQAVMCLPPNAYRADDRAVLQHFERVASVGLPVTAYNNPIDTKVDLRPDLLAKLHAEGYIVGVKEFSGDVRRCYEISELAPGLDLMIGTDDTVLEVALAGAKGWVAGYPQVFPRACLALYEASVRGDLEAALPLYRQLHPVLRWDSKTEFVQAIKLGQELTGRRGGPCRPPRQPLAPETEAVVRAATQALVDAGVNEGHHHHHH", "soluble on expression in E. coli": "soluble"}]}]}
